Experimental data reported in publication PMC7260706.

Biological target: T1, RelE (UniProt P0C077 1-95)
T1 sequence: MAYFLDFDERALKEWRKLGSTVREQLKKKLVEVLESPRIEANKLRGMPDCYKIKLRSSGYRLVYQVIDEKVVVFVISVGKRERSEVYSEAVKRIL
Test: intrinsic protein fluorescence

B1: unmodified mRNA (ssRNA)
RNA: GGCAAGGAGGUAAAAAUGUAGAAAAACAAU
B1: binds.
